Measured values published in US20110003886, “SELECTION OF RNA APTAMERS AS ANTI-MALARIA AGENTS” (FORSKARPATENT I SYD AB, published 2011).

B1: e05 (ssRNA)
RNA: GGGAAUUCGAGCUCGGUACCCUUCGAACGGCCCUGGUUGUUGGUUUUAAUUCAUUUAUCCGCGUGGUCACGGUCGUAGCAAGCUCUGCAGUCG
modifications: 2'-F on all pyrimidines (C and U) [positions count without the 20-nt 5-prime fixed region]

Tests used:
[1] = test system: GST-DBL1alpha (PfEMP1 DBL1alpha) (Plasmodium falciparum); experiment: competition; settings: 2'-F on all pyrimidines (C and U) [positions count without the 20-nt 5-prime fixed region], 30-fold molar excess unlabelled RNA
[2] = test system: DBL1alpha-His (PfEMP1 Duffy binding-like domain 1alpha, strain FCR3S1.2) (Plasmodium falciparum); experiment: pulldown; settings: 2'-F on all pyrimidines (C and U) [positions count without the 20-nt 5-prime fixed region], 40 nM RNA, 350-400 nM protein, Ni-NTA beads, PBSM, yeast RNA, 37 C, RNA assayed as 90 nt with 2x20 nt flanks
[3] = test system: PfEMP1 on FCR3S1.2-infected erythrocytes (Plasmodium falciparum); experiment: cell_activity; settings: 2'-F on all pyrimidines (C and U) [positions count without the 20-nt 5-prime fixed region]; rosette rate about 35% of control at 258 nM; 1 mM MgCl2
BSA = BSA (UniProt P02769 P02769:25-607); experiment: EMSA; 10 ug BSA negative control; settings: label: 32P; complex secondary structure predicted by mfold
Chain of BSA (P02769 25-607, one chain of several): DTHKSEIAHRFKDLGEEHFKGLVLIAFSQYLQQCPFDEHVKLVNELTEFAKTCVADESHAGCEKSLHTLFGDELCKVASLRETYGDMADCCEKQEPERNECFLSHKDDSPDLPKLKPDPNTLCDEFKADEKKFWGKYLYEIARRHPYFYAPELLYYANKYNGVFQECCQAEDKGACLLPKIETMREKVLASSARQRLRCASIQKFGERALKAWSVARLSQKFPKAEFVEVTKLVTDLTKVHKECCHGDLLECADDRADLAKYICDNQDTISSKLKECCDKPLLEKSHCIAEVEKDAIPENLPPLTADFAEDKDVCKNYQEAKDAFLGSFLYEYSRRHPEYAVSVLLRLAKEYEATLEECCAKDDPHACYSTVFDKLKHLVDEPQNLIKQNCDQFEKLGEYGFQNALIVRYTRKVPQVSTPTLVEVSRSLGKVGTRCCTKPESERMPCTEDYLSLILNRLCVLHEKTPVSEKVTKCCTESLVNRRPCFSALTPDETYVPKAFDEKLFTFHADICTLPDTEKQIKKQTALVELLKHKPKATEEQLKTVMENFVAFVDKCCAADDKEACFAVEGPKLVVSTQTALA
Protocol: To study RNA/DBL1α^His interaction in solution a number of EMSA experiments were conducted. The protein used for these experiments was freshly eluted from the Ni-NTA beads to avoid long storage and freezing in solution to prevent precipitation of DBL1α^His The RNA was internally labelled with ³²P-ATP and migration after incubation with DBL1α^His or BSA was analysed on 10% native polyacrylamide gel. The upper band (177 nucleotide long RNA) seen in FIG. 4 is an incorrect product of the T7 transcription that is derived from a longer transcription template. This template is a product generated in the previous PCR reaction (binding of PCR primer to en external T7 site in the TOPO-vector). […] Throughout the EMSA experiments conducted, no real band shift was observed (RNA molecule bound to protein with slower migration).
FIG. 5. Mobility shift assay of selected clone e05. ˜30 ng internal ³²P-[αATP] labelled RNA was incubated with ˜300-400 ng DBL1α^His for 10 min. and loaded on 10% TBE-buffered PAA gel (+) together with negative control (−) incubated in the presence of 10 μg BSA.

Row | Molecule | binding signal (% decrease of labelled RNA recovery) [1] | binding signal (% RNA recovery) ([2]; clone also listed as SEQ 6/12) | activity (nM (complete rosette disruption)) [3] | binding signal (% RNA recovery) ([2]; clone also listed as SEQ 5/11) | binding signal (% decrease of labelled RNA recovery) ([1]; 60% decrease at 45-fold, no decrease with 30-fold e02 or pool 0) | binding signal (% RNA recovery) ([2]; clone also listed as SEQ 4/10) | binding result (BSA)
1 | GGGAAUUCGAGCUCGGUACCCUUCGAACGGCCCUGGUUGUUGGUUUUAAUUCAUUUAUCCGCGUGGUCACGGUCGUAGCAAGCUCUGCAGUCG [e05] | 40 | 70 | 387 |  |  |  | 
2 | GGGAAUUCGAGCUCGGUACCUCAUGUGCCAGUGUUUGAAAAAACGCGUUGAUUGCUGGUGUGGUGAGCUAGUCGUAGCAAGCUCUGCAGUCG | 40 |  | 387 | 70 |  |  | 
3 | GGGAAUUCGAGCUCGGUACCUGCCAACCUUCGAUGCAAGAUAAUACUUUUGAUGGUGUAGUCGUAUUGUUCGUAGCAAGCUCUGCAGUCG [d12] |  |  | 387 |  | 40 | 70 | 
4 | B1 |  |  |  |  |  |  | no binding
